Results as given in paper PMC7522779.

Target: Pex14p-S266D, Gal4p fusion protein for yeast two-hybrid (S. cerevisiae) (UniProt P53112)
Experiment: two-hybrid; liquid ß-galactosidase assay with 2-nitrophenyl β-D-galactopyranoside; GAL4 BD and AD fusions in strain PCY2 pex14Δ; triplicate measurements of three independent transformants

UniProt P53112, sequence (P53112 whole entry S266D, the tested form may be a part): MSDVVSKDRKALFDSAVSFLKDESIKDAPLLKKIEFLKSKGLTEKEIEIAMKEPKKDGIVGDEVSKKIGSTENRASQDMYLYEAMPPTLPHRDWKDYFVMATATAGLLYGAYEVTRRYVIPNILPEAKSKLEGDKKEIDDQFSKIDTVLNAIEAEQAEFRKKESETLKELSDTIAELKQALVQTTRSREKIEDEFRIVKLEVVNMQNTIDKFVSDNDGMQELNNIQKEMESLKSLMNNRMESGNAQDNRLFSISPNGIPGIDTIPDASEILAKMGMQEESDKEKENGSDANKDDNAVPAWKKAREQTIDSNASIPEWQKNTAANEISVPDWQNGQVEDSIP

For “Pex13p, Gal4p fusion protein for yeast two-hybrid (from UniProt P80667 1-386) (natural protein)”, which binding as percent of wild-type level (ß-galactosidase activity) (% of wild-type levels) is on record?
Its binding as percent of wild-type level (ß-galactosidase activity) (% of wild-type levels) is less than 50.
